# Laboratory results published in patent US20250179144A1.
# What was measured:
# [1] = biological target: full-length human BTN3A1 on transfected cells (human) (UniProt O00481); assay: flow cytometry, γδTCR tetramer-PE on BTN3A1-transfected NIH-3T3 cells treated with isotype IgG1κ (black number); SAv control 26
# [2] = biological target: full-length human BTN3A1 on transfected cells pre-treated (cross-linked) with anti-BTN3A mAb clone 20.1 (human); assay: flow cytometry, FRET (YG 670/30) between TCR tetramer-PE and anti-BTN3A 20.1-AF647 on BTN3A1+ NIH-3T3 cells; with IgG1κ-AF647 the gate holds 0, with SAv 0
# [3] = biological target: G115 Vγ9Vδ2+ TCR wild-type expressed on transfected cells; assay: flow cytometry, tetramer-PE against CD3-APC on HEK293T cells co-transfected with CD3 and G115 WT TCR; SAv control 27
# [4] = biological target: G115 Vγ9Vδ2+ TCR Glu52δ-Ala expressed on transfected HEK293T cells; assay: flow cytometry, tetramer-PE against CD3-APC on HEK293T cells co-transfected with CD3 and G115 Glu52δ-Ala TCR; SAv control 32
# [5] = biological target: G115 Vγ9Vδ2+ TCR His85γ-Ala expressed on transfected HEK293T cells; assay: flow cytometry, tetramer-PE against CD3-APC on HEK293T cells co-transfected with CD3 and G115 His85γ-Ala TCR; SAv control 27
# [6] = biological target: G115 Vγ9Vδ2+ TCR Lys53δ-Ala expressed on transfected HEK293T cells; assay: flow cytometry, tetramer-PE against CD3-APC on HEK293T cells co-transfected with CD3 and G115 Lys53δ-Ala TCR; SAv control 27
# [7] = biological target: full-length human BTN3A1 on transfected cells (human) (UniProt O00481); assay: flow cytometry, control tetramer-PE on BTN3A1-transfected NIH-3T3 cells treated with isotype IgG1κ (black number); SAv control 25
# mCD1d tet. ctl, sequence (P11609 22-305): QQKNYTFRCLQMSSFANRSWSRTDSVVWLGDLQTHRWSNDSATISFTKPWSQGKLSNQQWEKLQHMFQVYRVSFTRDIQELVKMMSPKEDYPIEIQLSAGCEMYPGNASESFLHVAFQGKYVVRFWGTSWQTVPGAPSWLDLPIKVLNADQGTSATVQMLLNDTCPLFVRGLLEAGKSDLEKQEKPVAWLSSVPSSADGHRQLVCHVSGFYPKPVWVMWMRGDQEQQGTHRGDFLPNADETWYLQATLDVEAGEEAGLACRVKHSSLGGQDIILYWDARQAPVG
# soluble G115 Vγ9Vδ2+ TCR wild-type, sequence (TCR delta): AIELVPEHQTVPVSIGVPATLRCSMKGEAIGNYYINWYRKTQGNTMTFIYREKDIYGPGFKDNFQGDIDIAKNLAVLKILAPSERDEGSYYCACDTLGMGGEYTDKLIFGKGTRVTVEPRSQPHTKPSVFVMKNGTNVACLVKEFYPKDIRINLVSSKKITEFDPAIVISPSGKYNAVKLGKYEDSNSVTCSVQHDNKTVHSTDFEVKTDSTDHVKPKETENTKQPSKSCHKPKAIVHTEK
# soluble G115 Vγ9Vδ2+ TCR wild-type, sequence (TCR gamma): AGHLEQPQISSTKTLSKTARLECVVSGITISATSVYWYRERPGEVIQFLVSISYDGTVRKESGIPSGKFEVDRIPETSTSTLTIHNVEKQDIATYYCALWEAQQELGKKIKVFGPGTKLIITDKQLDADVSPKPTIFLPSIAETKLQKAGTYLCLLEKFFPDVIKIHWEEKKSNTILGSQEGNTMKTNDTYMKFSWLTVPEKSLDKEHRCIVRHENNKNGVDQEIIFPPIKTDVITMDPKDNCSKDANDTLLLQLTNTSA
MFI of PE (GFP+ gate) [1],% cells in the FRET gate [2],MFI of PE [3],MFI of PE [4],MFI of PE [5],MFI of PE [6],MFI of PE (GFP+ gate) [7],Substance
35,19%,,,,,,soluble G115 Vγ9Vδ2+ TCR wild-type
,,282,469,28,507,,soluble BTN2A1 ectodomain lacking Cys247 (monomeric) (from UniProt Q7KYR7 29-246) (ligand)
,,102,72,63,753,,"BTN2A1-BTN3A1-zipper ectodomain complex (construct #1, long linker version with high affinity zippers) (ligand)"
24,,,,,,,chimeric γδTCR tetramer: G115 pAg-reactive Vγ9+ γ-chain with 9C2 Vδ1+ δ-chain
,,20,26,22,23,32,mCD1d tet. ctl
